Data published in patent US20160091489.
Read-outs that look alike come from different tables or passages of the source.

Tests used:
[1] = tested on: Ramos cell surface (protein target not named in document) (Homo sapiens); details: 3' biotin, Ramos cell capture efficiency in microfluidic device
[2] = tested on: CEM cell surface receptor bound by sgc8 (protein not named in document) (Homo sapiens); assay: flow; details: whole CEM cells

**Q.** With “AACACCGTGGAGGATAGTTCGGTGGCTGTTCAGGGTCTCCTCCCGGTG [AuNP-TD05]” as the sequence, how does the activity ([1]; 5' thiol-(PEG)24 on gold nanoparticle) read?
**A.** 90 % capture

**Q.** How did the activity ([1]; 3' T10 linker, aptamer alone) turn out when “AACACCGTGGAGGATAGTTCGGTGGCTGTTCAGGGTCTCCTCCCGGTGTTTTTTTTTT [TD05]” was run?
**A.** 41 % capture

**Q.** With “ATCTAACTGCTGCGCCGCCGGGAAAATACTGTACGGTTAGA [AuNP-sgc8]” as the sequence, how does the Kd ([2]; 5' thiol-(PEG)24 on 13.6 nm gold nanoparticle, about 95 aptamers per particle, 3' biotin or FITC, multivalent gold nanoparticle conjugate) read?
**A.** 0.1 nM

**Q.** “ATCTAACTGCTGCGCCGCCGGGAAAATACTGTACGGTTAGATTTTTTTTTT [sgc8]” was tested. Which Kd ([2]; 3' T10 linker as printed in Table 1, 3' biotin for capture, FITC instead of biotin for flow) did it give?
**A.** 3.9 nM
